{"source": "patent US20230082287A1", "about": "“METHODS OF TREATING AN INFLAMMATORY OR OBSTRUCTIVE AIRWAY DISEASE USING ANTI-TSLP ANTIBODY” (Novartis AG, priority 2020, published 2023)", "molecules": {"B1": {"name": "CSJ117: potent neutralizing antibody fragment (Fab) directed against human TSLP; heavy chain SEQ ID NO: 9, light chain SEQ ID NO: 19 (antibody)", "heavy": "EVQLVESGGGLVKPGGSLRLSCAASGFTFSDYWMHWVRQAPGKGLEWVGHIKSKTDAGTTDYAAPVKGRFTISRDDSKNTLYLQMNSLKTEDTAVYYCAREIYYYAFDSWGQGTLVTVSSASTKGPSVFPLAPSSKSTSGGTAALGCLVKDYFPEPVTVSWNSGALTSGVHTFPAVLQSSGLYSLSSVVTVPSSSLGTQTYICNVNHKPSNTKVDKRVEPKSC", "light": "SYELTQPLSVSVALGQTARITCSGDNIGSKYVHWYQQKPGQAPVLVIYGDNERPSGIPERFSGSNSGNTATLTISRAQAGDEADYYCQAADWVDFYVFGGGTKLTVLGQPKAAPSVTLFPPSSEELQANKATLVCLISDFYPGAVTVAWKADSSPVKAGVETTTPSKQSNNKYAASSYLSLTPEQWKSHRSYSCQVTHEGSTVEKTVAPTECS"}}, "test_system": "allergen inhalation challenge (AIC) in subjects with mild atopic asthma", "assay": "Phase 2a allergen bronchoprovocation study (LAR, EAR, FeNO)", "format": "in vivo, human", "description": "CSJ117, as an inhaled Fab targeting TSLP, offers the potential to be an efficacious therapy for severe asthma with a favorable safety and tolerability profile. This study used inhaled allergen bronchoprovocation testing as a model for allergic asthma, in an effort to predict CSJ117 efficacy in the eventual severe asthma patient population. As a model for allergic asthma, standardized inhaled allergen bronchoprovocation testing can induce the acute and some of the more chronic features of asthma in human subjects with mild atopic asthma. In sensitized subjects, inhalation of a relevant allergen results in acute bronchoconstriction (the early asthma response or EAR [EAR defined as ≥20% fall in forced expiratory volume in 1 second (FEV1) between 0-2 hours after inhalation of allergen] Boulet et al 2007). In approximately 50% of subjects the EAR is followed by an inflammatory airway response with prolonged airway narrowing (the late asthma response or LAR [LAR defined as ≥15% fall in FEV1 between 3-7 hours after inhalation of allergen] Boulet et al 2007). In general, inhibition of the LAR in the allergen bronchoprovocation model is a good predictor of clinical efficacy in the moderate to severe asthma patient population (Diamant et al 2013). The objectives of this allergen bronchoprovocation study were to characterize the safety, tolerability, pharmacokinetics (PK) and pharmacodynamic (PD) effects of CSJ117 in subjects with mild atopic asthma over 12 weeks of treatment to determine if further clinical development is warranted.\nThis was a non-confirmatory, randomized, subject- and investigator-blinded, placebo-controlled, parallel-design, multi-center bronchoprovocation study. […] Two sequential dose cohorts were enrolled for this study. • Cohort 1: 24 subjects (12 active and 12 placebo) • Cohort 2a: 4 subjects (3 active and 1 placebo)\nThere was only one active dose used in the study, i.e. CSJ117 4 mg used for both Cohort 1 & 2a. Placebo subjects from all cohorts were pooled for analyses.\nFor all cohorts, the study consisted of a 35-day screening period, a baseline evaluation, a 12-week treatment period (consisting of a single dose on Day 1, safety evaluation Days 1-3 and commencement of QD dosing on Day 3) and a 30-day follow up period (FIG. 3).\nOn Day 1 (Visit 101) of the treatment period, after completion of all pre-dose assessments, subjects were randomized and received a single dose of CSJ117 or placebo in the morning and then underwent safety assessments, observation and PK sampling in-clinic for a period of 8 hours post-dose. On Day 2 (Visit 102), the subject returned to the clinic for evaluation and PK sampling. On Day 3 (Visit 103), the subjects returned to clinic for evaluation. On Day 3 (Visit 103) subjects took an inhaled dose of CSJ117 or placebo in the clinic. For the remaining duration of the 12-week treatment period, subjects took daily inhaled doses of CSJ117 or placebo, in the clinic on study visit days or at home. […]\nDog, cat, horse, mouse, cattle, rat and bird allergens were included in the challenge. Table 6 and Table 7 show the fall in FEV1 values and percentages, respectively, after the allergen challenges. […]\nThe early asthmatic response (EAR) after an allergen inhalation challenge on Day 42 and Day 84 was assessed by measuring the (1) area under the curve (AUC) time-adjusted percent fall in the FEV1, (2) maximum percent fall in the FEV1, and (3) minimum absolute FEV1 between 0 and 2 hours after […].", "key": {"[1]": {"conditions": "Day 42, 4 mg QD inhaled (N = 12)"}, "[2]": {"conditions": "Day 84, 4 mg QD inhaled (N = 13)"}}, "data": [{"molecule": "B1", "values": [{"measurement": "E, % [(B-A)/B]*100", "setting": "CSJ117 4 mg OD, LAR max fall % FEV1", "result": 47.6, "unit": "%"}, {"measurement": "LAR B-A (placebo minus treatment), Max fall % FEV1", "setting": "CSJ117 4 mg OD, PoC study", "result": 8.42}, {"measurement": "LAR Treatment (A), Max fall % FEV1", "setting": "CSJ117 4 mg OD, PoC study", "result": 9.28, "unit": "%"}, {"measurement": "LAR time adjusted AUC 3-7 h, Difference (CSJ117-Placebo) (Table 6)", "setting": "Day 42, 4 mg QD", "result": "−2.64", "unit": "%"}, {"measurement": "LAR time adjusted AUC 3-7 h, Difference (CSJ117-Placebo) (Table 7)", "setting": "Day 42, 4 mg QD", "result": "−2.90", "unit": "%"}, {"measurement": "LAR time adjusted AUC 3-7 h, Difference (CSJ117-Placebo) (Table 8)", "setting": "Day 42, 4 mg QD", "result": "−1.02", "unit": "%"}, {"measurement": "LAR time adjusted AUC 3-7 h, Difference (CSJ117-Placebo) (Table 9)", "setting": "Day 42, 4 mg QD", "result": "−4.70", "unit": "%"}, {"measurement": "LAR time adjusted AUC 3-7 h, model-based mean estimate (Table 6)", "setting": "[1]", "result": 13.11, "unit": "%"}, {"measurement": "LAR time adjusted AUC 3-7 h, model-based mean estimate (Table 7)", "setting": "[1]", "result": 6.46, "unit": "%"}, {"measurement": "LAR time adjusted AUC 3-7 h, model-based mean estimate (Table 8)", "setting": "[1]", "result": 15.11, "unit": "%"}, {"measurement": "LAR time adjusted AUC 3-7 h, model-based mean estimate (Table 9)", "setting": "[1]", "result": 27.85, "unit": "%"}, {"measurement": "LAR time adjusted AUC 3-7 h, Difference (CSJ117-Placebo) (Table 6)", "setting": "Day 84, 4 mg QD", "result": "−8.42", "unit": "%"}, {"measurement": "LAR time adjusted AUC 3-7 h, Difference (CSJ117-Placebo) (Table 7)", "setting": "Day 84, 4 mg QD", "result": "−7.18", "unit": "%"}, {"measurement": "LAR time adjusted AUC 3-7 h, Difference (CSJ117-Placebo) (Table 8)", "setting": "Day 84, 4 mg QD", "result": "−4.26", "unit": "%"}, {"measurement": "LAR time adjusted AUC 3-7 h, Difference (CSJ117-Placebo) (Table 9)", "setting": "Day 84, 4 mg QD", "result": "−5.41", "unit": "%"}, {"measurement": "LAR time adjusted AUC 3-7 h, model-based mean estimate (Table 6)", "setting": "[2]", "result": 9.28, "unit": "%"}, {"measurement": "LAR time adjusted AUC 3-7 h, model-based mean estimate (Table 7)", "setting": "[2]", "result": 4.20, "unit": "%"}, {"measurement": "LAR time adjusted AUC 3-7 h, model-based mean estimate (Table 8)", "setting": "[2]", "result": 12.83, "unit": "%"}, {"measurement": "LAR time adjusted AUC 3-7 h, model-based mean estimate (Table 9)", "setting": "[2]", "result": 25.48, "unit": "%"}, {"measurement": "minimum absolute FEV1 between 3 and 7 hours compared with placebo", "setting": "Day 84, p-value of 0.050", "result": "statistically less"}, {"measurement": "AUC of the time-adjusted fall in FEV1 during the late response", "setting": "day 84, 4 mg daily inhalation, vs placebo 11.38%, p=0.008", "result": 4.20, "unit": "%"}, {"measurement": "maximum fall % FEV1 during the late response", "setting": "day 84, 4 mg daily inhalation, vs placebo 17.70%, P=0.029", "result": 9.28, "unit": "%"}, {"measurement": "fractional exhaled nitric oxide (FeNO) compared with placebo", "setting": "over the 12-week treatment period, 4 mg QD", "result": "trend for a reduction"}]}]}
